Assays:
[1] = target: T1, EZH2 SRM-SANT1 (residues 141–251) (human, UniProt Q15910 141-251); assay: pull-down; 1 μg purified untagged SRM-SANT1 with 1 μg biotin-tagged H4 peptide overnight at 4 °C in 150 mM NaCl, 50 mM Tris (pH 6.5), 3 mM DTT; captured on streptavidin sepharose, four washes, coomassie staining; triplicates quantified with ImageJ; settings: both partners purified
T1 construct: Enhancer of Zeste Homologue 2 (EZH2), human, residues 141-251: stimulation response motif (SRM), linker and SANT1 domain; cDNA from OpenBiosystems; Uniformly 15N-enriched for the NMR titrations; untagged in the pull-down; also called EZH2 SANT1; source: E. coli Rosetta2 (DE3) pLysS, purified (glutathione agarose, PreScission cleavage, ion exchange, size exclusion); not shown: GST, N-terminal, …

[2] = target: T1, EZH2 SRM-SANT1 (residues 141–251); assay: NMR titration; 15N-HSQC spectra of 0.05–0.10 mM 15N-EZH2 SRM-SANT1 with increasing concentrations of histone peptide; 25 °C; Kd from normalized CSPs, one-site model accounting for ligand depletion, averaged over significantly perturbed residues; settings: both partners purified

T1 sequence (Q15910 141-251): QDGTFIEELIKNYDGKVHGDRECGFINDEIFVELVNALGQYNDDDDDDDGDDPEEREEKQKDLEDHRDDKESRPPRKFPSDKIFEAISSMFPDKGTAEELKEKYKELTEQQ

B1: biotinylated unmodified histone H4 peptide (residues 11–27) (peptide, UniProt P62805 12-28, looked up)
peptide: GKGGAKRHRKVLRDNIQ
modifications: biotin (end not stated)
notes: histone H4, residues 11-27; also called unmodified H4 (11–27); source: synthetic peptide, bought: EpiCypher (SKU:12-0035)
- binding result [1]: binds

B2: unmodified histone H2B peptide (residues 1–11) (peptide, UniProt P62807 2-12, looked up)
peptide: PEPAKSAPAPK
notes: histone H2B N-terminal tail, residues 1-11; also called H2B (1–11); H2B tail; source: synthetic peptide, bought: AnaSpec (65442-1)
- fold weaker than the H4 tail [2]: ~20 fold

B3: unmodified histone H4 peptide (residues 11–21) (peptide, UniProt P62805 12-22, looked up)
peptide: GKGGAKRHRKV
notes: histone H4, residues 11-21 (holds the basic patch); also called H4(11–21); source: synthetic peptide, custom synthesized by GenScript
- Kd [2]: 700 ± 200 µM

Reference: paper PMC6353875, “The EZH2 SANT1 domain is a histone reader providing sensitivity to the modification state of the H4 tail” (Scientific Reports, 2019)
